Results on nine molecules are retold here after paper PMC6312923 (Life Science Alliance, 2018).

Where no end group is shown, it is not given here. TAMRA = carboxytetramethylrhodamine

Data set [1] relates to Cdt1-3FLAG;PCNA (Homo sapiens;Homo sapiens). Kind of data set: pull-down (DNA beads, Western blot). Particulars: PCNA preloaded by RFC with ATP; 301 fmol Cdt1 on […] fmol PCNA trimer; biotin-dT in the second strand; single nick by Nb.BbvCI; HBS: 10 mM Hepes pH 7.4, 0.15 M NaCl, 10 mM MgCl2, 0.2 mM EDTA, 0.05% Tween 20; loading with 2 mM ATP, 37 C 1 h; Cdt1/CRL4Cdt2 binding 4 C 1 h.

Data set [2] deals with CRL4Cdt2 (WT): Cdt2-3FLAG with Cul4A, DDB1, Rbx1;PCNA (Homo sapiens;Homo sapiens). Kind of data set: pull-down (DNA beads, Western blot). Particulars: PCNA preloaded by RFC with ATP; no Cdt1; 408 fmol Cdt2 on […] fmol PCNA trimer; biotin-dT in the second strand; single nick by Nb.BbvCI; HBS: 10 mM Hepes pH 7.4, 0.15 M NaCl, 10 mM MgCl2, 0.2 mM EDTA, 0.05% Tween 20; loading with 2 mM ATP, 37 C 1 h; Cdt1/CRL4Cdt2 binding 4 C 1 h.

For data set [3], the system named is free PCNA. Kind of data set: Binding of free PCNA to Cdt1 or CRL4^Cdt2 on anti-FLAG beads. Details: species or system human. Particulars: 2 h at 4°C, Western blotting, three independent experiments. An excerpt:
FLAG-tagged Cdt1 (Cdt1-3FLAG) and CRL4^Cdt2 (Cdt2-3FLAG) were expressed in insect cells and purified on anti-FLAG resin (Fig 5A).
A general note: Immunoblotting shows a protein as a band on a membrane.

Data set [4] has as its system PCNA. Kind of data set: Co-immunoprecipitation of PCNA with FLAG-tagged Cdt2 constructs. In kind it is cell-based, human. Particulars: cross-linked cells, 3FLAG fusions, no UV. An excerpt:
(§1) Before cell lysate preparation, cells were cross-linked.
(§2) Figure 3. […] HEK293 cells were transfected with plasmids expressing the indicated Cdt2 fused to a C-terminal FLAG tag, cross-linked, and precipitated with anti-FLAG antibodies (arrows). […] The bands in the blank lanes for Cul4A blotting correspond to the cross-reacting bands to pre-stained marker. […] HEK293 cells were transfected with the indicated plasmids and treated as in A. * indicates nonspecific bands derived from IgGs. (C) A schematic drawing of the Cdt2 domain structure highlighting the C-terminal PIP box and a sequence alignment of PIP boxes in various organisms. The alanine-changed PIP box mutant of Cdt2 was shown (PIP-3A) together with Cdt1 PIP box. (D) HEK293 cells were transfected with Cdt2^WT or PIP box mutant (Cdt2^PIP-3A) C-terminally fused to a FLAG tag, treated as in B, and Cdt2 was precipitated with anti-FLAG resin.
(§3) Control or Cdt2-FLAG expressing 293 cells that were UV irradiated (50 J/m^2), or not UV irradiated, or in the middle S phase (5 h after release from aphidicolon arrest) were fixed with 0.02% formaldehyde for 10 min, lysed using 0.1% Triton X-100-containing modified cytoskeleton (mCSK) buffer (10 mM Pipes, pH 7.9, 100 mM NaCl, 300 mM sucrose, 0.1% [vol/vol] Triton X-100, 1 mM phenylmethylsulfonyl fluoride, 10 mM β-glycerophosphate, 1 mMNa3VO4, 10 mM NaF), and then sonicated. After centrifugation (120,000g, Beckman Type 45Ti rotor, for 20 min at 4°C), the supernatants were mixed with anti-FLAG antibody-conjugated magnetic beads (M8823; Sigma-Aldrich) for 1 h at 4°C to obtain immunoprecipitates. The precipitate was washed with ice-cold 0.1% Triton X-100 containing mCSK buffer and subsequently suspended in SDS sample buffer.

Data set [5] has as its system MCF7 cells, DNA-damage (CPD) sites. Kind of data set: Recruitment of GFP-Cdt2 constructs to DNA-damage sites in MCF7 cells. Format: cell-based, human. Particulars: MCF7, UV-C 50 J/m^2, GFP fusions; two independent experiments. An excerpt:
Figure 2. The C-terminus of Cdt2 mediates Cdt2 recruitment to sites of damage. (A) A schematic drawing of the domain structure of Cdt2 and constructs used. (B) The C-terminal, but not the N-terminal, part of Cdt2 mediates recruitment to DNA damage sites. MCF7 cells transfected with the indicated plasmids were locally UV-C irradiated (50 J/m^2 through 5 μm pore diameter micropore filters), and recruitment of each Cdt2 construct to sites of damage was examined by staining with α-CPD antibody and GFP signal.
For Western blotting, whole-cell lysates were prepared by lysing cell pellets directly in SDS–PAGE buffer. For immunofluorescence, U2OS or HEK293 cells were fixed in 4% paraformaldehyde (PFA; WAKO) for 10 min, permeabilized in 0.25% (vol/vol) Triton X-100 in PBS, and stained with the indicated antibodies as described previously. […] For cyclobutane pyrimidine dimer (CPDs) staining, MCF7 and HeLa cells were fixed in 4% PFA for 10 min, permeabilized in 0.3% Triton X-100 in PBS, and then incubated in 0.5 N NaOH for 5 min for DNA denaturation before immunofluorescence. Alexa488-conjugated anti-mouse and […] anti-rabbit antibodies were used as secondary antibodies with Hoechst 33258 to visualize DNA. […] Protein levels were analysed by ImageJ software.
We used a method to induce DNA photoproducts within localized areas of the cell nucleus as described in Ishii et al (2010). To perform micropore UV irradiation, cells were cultured on cover slips, washed twice with PBS, and subsequently covered with an isopore polycarbonate membrane filter (Millipore) with a pore size of either 3 or 5 μm in diameter, and irradiated. UV irradiation was achieved using a UV lamp (SUV-16, As One, Japan) with a dose rate of 0.4 J/m^2·s, which was monitored with a UV radiometer (UVX Radiometer, UVP) at 254 nm, or with a UV box equipped with a UV-C lamp monitored with a VLX-3W radiometer (Vilber Lourmat) at 254 nm (CX-254 sensor). The filter was removed and cells were either fixed or cultured for the indicated time before fixation, and processed for immunofluorescence. […]

Data set [6] has as its system DDB1, Cul4A. Kind of data set: Co-immunoprecipitation of DDB1 / Cul4A with FLAG-tagged Cdt2 constructs. Format: cell-based, human. Particulars: anti-FLAG IP, cross-linked cells.
From the text: as §1, §2, §3

For data set [7], the target named is T1, full-length human PCNA (recombinant, for peptide binding and crystallography) (human, UniProt P12004 1-261).
T1 construct: PCNA, human, full length; also called recombinant PCNA; source: E. coli Bl21 (DE3), purified as described (Hibbert & Sixma, 2012)
T1 sequence (P12004 whole entry): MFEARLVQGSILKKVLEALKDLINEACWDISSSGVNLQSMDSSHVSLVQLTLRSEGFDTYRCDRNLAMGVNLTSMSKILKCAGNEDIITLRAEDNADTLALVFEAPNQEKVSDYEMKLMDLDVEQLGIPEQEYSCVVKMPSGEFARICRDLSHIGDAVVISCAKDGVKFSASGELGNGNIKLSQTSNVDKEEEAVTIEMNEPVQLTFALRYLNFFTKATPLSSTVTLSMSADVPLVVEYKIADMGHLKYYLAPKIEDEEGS
In words: fluorescence polarisation; 1 nM labelled peptide mixed with PCNA at 0 to 2 μM; 10 mM Hepes pH 7.5, 125 mM NaCl, 0.5 mM TCEP; non-binding 96-well plates; triplicates. Particulars: both partners purified. (Polarisation of emitted light reports the rotation of a fluorescent probe.)

Take “ncDNA beads (singly nicked circular pBluescript II KS(-))”: the binding signal (Cdt1 per PCNA trimer) in data set [1] turned out to be 2.04. Further, the binding signal (Cdt2 per PCNA trimer) in data set [2] was found to be 2.57.
As to “CRL4^Cdt2: E3 ligase complex of Cdt2-3FLAG, DDB1, HA-Cul4, His-myc-Rbx1, purified from insect cells”, the “binding of free PCNA to protein beads” value in data set [3] is reported as “much less”.

B1: Cdt2^1–417: Cdt2 N-terminal WD40 domain construct (protein)
chain: MLFNSVLRQPQLGVLRNGWSSQYPLQSLLTGYQCSGNDEHTSYGETGVPVPPFGCTFSSAPNMEHVLAVANEEGFVRLYNTESQSFRKKCFKEWMAHWNAVFDLAWVPGELKLVTAAGDQTAKFWDVKAGELIGTCKGHQCSLKSVAFSKFEKAVFCTGGRDGNIMVWDTRCNKKDGFYRQVNQISGAHNTSDKQTPSKPKKKQNSKGLAPSVDFQQSVTVVLFQDENTLVSAGAVDGIIKVWDLRKNYTAYRQEPIASKSFLYPGSSTRKLGYSSLILDSTGSTLFANCTDDNIYMFNMTGLKTSPVAIFNGHQNSTFYVKSSLSPDDQFLVSGSSDEAAYIWKVSTPWQPPTVLLGHSQEVTSVCWCPSDFTKIATCSDDNTLKIWRLNRGLEEKPGGDKLSTVGWASQKKKESR
modifications: left off: HA, N-terminal, state not stated | 3FLAG, C-terminal, kept
notes: Cdt2 N-terminal WD40 domain construct
Take B1: in data set [4], the “interaction with PCNA (anti-FLAG IP)” value is reported as “lost most of its affinity for PCNA”. Further, the “recruitment to DNA-damage sites” value in data set [5] is given as “no evidence for recruitment”. In data set [6], the “binding to DDB1 (and Cul4A)” value is “still able to bind DDB1”.

B2: Cdt2^1–700: Cdt2 with the C-terminal 30 amino acids deleted (protein)
chain: MLFNSVLRQPQLGVLRNGWSSQYPLQSLLTGYQCSGNDEHTSYGETGVPVPPFGCTFSSAPNMEHVLAVANEEGFVRLYNTESQSFRKKCFKEWMAHWNAVFDLAWVPGELKLVTAAGDQTAKFWDVKAGELIGTCKGHQCSLKSVAFSKFEKAVFCTGGRDGNIMVWDTRCNKKDGFYRQVNQISGAHNTSDKQTPSKPKKKQNSKGLAPSVDFQQSVTVVLFQDENTLVSAGAVDGIIKVWDLRKNYTAYRQEPIASKSFLYPGSSTRKLGYSSLILDSTGSTLFANCTDDNIYMFNMTGLKTSPVAIFNGHQNSTFYVKSSLSPDDQFLVSGSSDEAAYIWKVSTPWQPPTVLLGHSQEVTSVCWCPSDFTKIATCSDDNTLKIWRLNRGLEEKPGGDKLSTVGWASQKKKESRPGLVTVTSSQSTPAKAPRAKCNPSNSSPSSAACAPSCAGDLPLPSNTPTFSIKTSPAKARSPINRRGSVSSVSPKPPSSFKMSIRNWVTRTPSSSPPITPPASETKIMSPRKALIPVSQKSSQAEACSESRNRVKRRLDSSCLESVKQKCVKSCNCVTELDGQVENLHLDLCCLAGNQEDLSKDSLGPTKSSKIEGAGTSISEPPSPISPYASESCGTLPLPLRPCGEGSEMVGKENSSPENKNWLLAMAAKRKAENPSPRSPSSQTPNSRRQSGKKLPSPVT
modifications: left off: HA, N-terminal, state not stated | 3FLAG, C-terminal, kept
notes: Cdt2 with the C-terminal 30 amino acids deleted
As for B2, the “interaction with PCNA (anti-FLAG IP)” value in data set [4] is “loss of interaction with PCNA”.

B3: Cdt1^PIP-TAMRA (1–14) (peptide)
peptide: MEQRRVTDFFARRR
modifications: also: TAMRA label, position not given here
notes: Cdt1 N-terminal PIP box peptide, residues 1-14; also called Cdt1 PIP box peptide; source: synthetic peptide (in-house Fmoc synthesis)
Usually Kd stands for the equilibrium constant for the complex coming apart. For B3, in data set [7], the Kd was found to be 7200 ± 200 nM.

B4: p21 PIP box peptide (peptide)
peptide: RRQTSMTDFYHSKR
notes: p21 PIP box peptide
As to B4, the dissociation constant (Kd) in data set [7] was found to be 36 ± 2 nM.

B5: Cdt2^390–730: C-terminal Cdt2 construct (protein)
chain: LNRGLEEKPGGDKLSTVGWASQKKKESRPGLVTVTSSQSTPAKAPRAKCNPSNSSPSSAACAPSCAGDLPLPSNTPTFSIKTSPAKARSPINRRGSVSSVSPKPPSSFKMSIRNWVTRTPSSSPPITPPASETKIMSPRKALIPVSQKSSQAEACSESRNRVKRRLDSSCLESVKQKCVKSCNCVTELDGQVENLHLDLCCLAGNQEDLSKDSLGPTKSSKIEGAGTSISEPPSPISPYASESCGTLPLPLRPCGEGSEMVGKENSSPENKNWLLAMAAKRKAENPSPRSPSSQTPNSRRQSGKKLPSPVTITPSSMRKICTYFHRKSQEDFCGPEHSTEL
modifications: left off: 3FLAG, N-terminal, kept | 3NLS, N-terminal, state not stated | myc, N-terminal, state not stated
notes: C-terminal Cdt2 construct
With B5, the “interaction with PCNA (anti-FLAG IP)” value in data set [4] is “still binds to PCNA”. Besides, in data set [5], the “recruitment to DNA-damage sites” value is “efficiently recruited to DNA-damage sites”. In data set [6], the “binding to DDB1 (and Cul4A)” value was “lost its ability to bind DDB1”.

B6: Cdt2^600–730: C-terminal 130 amino acids of Cdt2 (protein)
chain: KDSLGPTKSSKIEGAGTSISEPPSPISPYASESCGTLPLPLRPCGEGSEMVGKENSSPENKNWLLAMAAKRKAENPSPRSPSSQTPNSRRQSGKKLPSPVTITPSSMRKICTYFHRKSQEDFCGPEHSTEL
modifications: left off: 3FLAG, N-terminal, kept | 3NLS, N-terminal, state not stated | myc, N-terminal, state not stated
notes: C-terminal 130 amino acids of Cdt2
As to B6, the “interaction with PCNA (anti-FLAG IP)” value in data set [4] was “sufficient to mediate the interaction with PCNA”.

B7: Cdt2^PIP-TAMRA (704–717) (peptide)
peptide: {TAMRA}-SSMRKICTYFHRKS
notes: human Cdt2 PIP box, residues 704-717; also called Cdt2 PIP box peptide; source: synthetic peptide (in-house Fmoc synthesis)
As for B7, the Kd in data set [7] was 57 ± 3 nM.
